Measured values from US20090068207A1, “Compositions Containing Beta 2-Glycoprotein I-Derived Peptides for the Prevention and/or Treatment of Vascular Disease” (Vascular Biogenics Ltd., priority 2005, published 2009).

Tests used:
[1] = system: LDL receptor deficient mice; settings: oral administration, U.S. Ser. No. 09/806,400; cited from earlier work
lymph node cells [2] = experiment: Cytokine secretion by lymph node cells of tolerized mice (ELISA of conditioned medium); type: in vivo
Procedure: IFN-γ, IL-4, IL-10 and TGF-β secretion in tolerized lymph nodes: Conditioned medium was obtained from the lymph node proliferation experiments following 48 h of culture in the presence of β2GPI.

lymph node cells [3] = experiment: Lymph node cell proliferation (stimulation index) to oxLDL after oral administration; type: in vivo, mice
Procedure: Proliferation was measured by the incorporation of [^3H] thymidine into DNA during the final 12 h of incubation. The results were computed as stimulation index: the ratio of the mean cpm of the antigen to the mean background cpm obtained in the absence of the antigen.
[…] Three days after the final administration of peptides, the mice were immunized with OxLDL in incomplete Freund's adjuvant, as described in the Examples above, and lymph node cells assessed for antigen (OxLDL) stimulation of proliferation 10 days later. Proliferation was assessed by incorporation of thymidine, expressed as the Stimulation Index, as described.

[4] = system: anti-β2GPI antibodies and antibody isotypes; experiment: Serum antibody levels and isotypes (ELISA); type: in vivo, mice; settings: oral administration, subsequently immunized with β2GPI; data not shown
Procedure: Detection of anti-b2GPI antibodies and antibody isotypes: β2GPI (10 μg/ml) was coated onto flat bottom 96-well ELISA plates (Nalge-Nunc, Int. Rochester, N.Y.) by overnight incubation and the assay was performed as previously described (George et al, Circulation, 1998; 15:1108-15) IgG, IgA and IgM isotypes in the sera of β2GPI tolerant and non-tolerant mice were determined by an ELISA kit (Southern Biotechnology Associates, Birmingham, Ala., USA) according to the manufacture's instructions.
None of the orally-administered antigens induced production of antiβ2GPI antibodies (data not shown).

[5] = system: inguinal lymph node cells; experiment: Lymph node cell proliferation (stimulation index) to sensitizing antigen β2GPI after mucosal administration; type: in vivo, mice
Procedure: Immunization: Subcutaneous immunization with human β2GPI: Human β2GPI was prepared from human plasma pool as described above. For immunization, human β2GPI was dissolved in PBS and mixed with equal volumes of Freund's incomplete adjuvant. Immunizations were performed by single subcutaneous injection of 10 μg antigen/mouse in 0.1 ml volume. Three days following the last mucosal administration of plaque associated molecules the mice received one immunization, and were sacrificed 10 days post immunization.
Proliferation assays: Mice were exposed to the tested antigen as described for assessment of atherosclerosis, and then immunized (one to three days following the last exposure) subcutaneously with 10 μg β2GPI in 0.1 ml PBS, prepared from purified human β2GPI as described above.
Proliferation was assayed ten days after immunization with the β2GPI as follows: Draining inguinal lymph nodes were prepared by mashing the tissues on 100 mesh screens. Red blood cells were lysed with cold sterile double distilled water (6 ml) for 30 seconds and 2 ml of NaCl 3.5% was added. Incomplete medium was added (10 ml), cells were centrifuged for 7 min at 1,700 rpm, resuspended in RPMI medium and counted in a haemocytometer at 1:20 dilution (10 μl cells+190 μl Trypan Blue). Proliferation was measured by the incorporation of [^3H] Thymidine into DNA in triplicate samples of 100 μl of the packed cells (1×10^6 cells/ml) in a 96 well microtiter plate. […] Thymidine (0.5 μCi/well) was added. After an additional 12-24 hours of incubation the cells were harvested and transferred to glass fiber filters using a cell harvester (Brandel) and counted using β-counter (Lumitron). Proliferation was measured by the incorporation of [^3H] thymidine into DNA during the final 12 h of incubation. The results are expressed as the stimulation index (S.I.): the ratio of the mean radioactivity (cpm) of the antigen to the mean background (cpm) obtained in the absence of the antigen. Standard deviation was always <10% of the mean cpm.
Tolerance induced by mucosal exposure to plaque-associated molecules may be mediated by suppression of specific immune responses to antigenic portions (epitopes) of these plaque associated molecules. Lymphocyte proliferation in response to mucosal (nasal and oral) exposure to human β2GPI was measured in […]. 9 male, 5 week old LDL-RD mice were divided into 3 groups. In group A (n=3) oral tolerance was induced with 100 μg/mouse β2GPI suspended in 0.1 ml PBS, administered by gavage, as described above, every other day for 5 days. In group B (n=3) nasal tolerance was induced with 10 μg/mouse β2GPI suspended in 10 μl PBS, administered intranasally as described above, every other day for 5 days. The mice in group C (n=3) received oral administration of 200 μl PBS every other day for 5 days. Immune reactivity was stimulated in all mice by immunization with human β2GPI as described above in the Materials and Methods section, one day after the last feeding. Ten days after the immunization lymph nodes were collected for assay of proliferation (as expressed in the Stimulation Index SI). All mice were fed normal chow-diet containing 4.5% fat by weight (0.02% cholesterol) and water ad libitum.

atherosclerotic lesions = experiment: Immunohistochemistry of atherosclerotic lesions (β2GPI, CD3, Mac-1); type: in vivo, mice
Source text: Immunohistochemistry of atherosclerotic lesions: Immunohistochemical staining for CD3, macrophages and β2GPI content were done on aortic sinus 5-μm-thick frozen sections. Primary antibodies used for probing were rat anti-mouse CD3, rat anti-mouse Mac-1 and a polyclonal rat anti-mouse β2GPI antibodies (George et al Circulation 2000; 102:1822-7). Slides were developed with the three amino-9-ethylcarbonasole (AEC) substrate. Sections were counterstained with hematoxylin. Spleen sections were used as a positive control. Staining in the absence of 1st or 2nd antibody was used as a negative control. β2GPI presence were evaluated by its occupancy of plaque area by computerized morphometry as described previously for VCAM-1 (George et al, Circ Res. 2000; 86:1203-10).
No effect of oral β2GPI on the number of CD3 positive cells (0-5 cells/plaque in all groups; data not shown) or macrophage (Mac-1 positive) content of the fatty streaks was observed.

B1: β2GPI: beta2-glycoprotein I, species not stated at the place (human or bovine; FIG. 7 legend says bovine) (protein, UniProt P17690 20-345, looked up)
Beta-2-glycoprotein 1: GRTCPKPDELPFSTVVPLKRTYEPGEQIVFSCQPGYVSRGGIRRFTCPLTGLWPINTLKCMPRVCPFAGILENGTVRYTTFEYPNTISFSCHTGFYLKGASSAKCTEEGKWSPDLPVCAPITCPPPPIPKFASLSVYKPLAGNNSFYGSKAVFKCLPHHAMFGNDTVTCTEHGNWTQLPECREVRCPFPSRPDNGFVNHPANPVLYYKDTATFGCHETYSLDGPEEVECSKFGNWSAQPSCKASCKLSIKRATVIYEGERVAIQNKFKNGMLHGQKVSFFCKHKEKKCSYTEDAQCIDGTIEIPKCFKEHSSLAFWKTDASDVKPC
reduction in atherogenesis by oral tolerance [1]: approximately 30%
TGF-β levels in the conditioned medium of lymph node cells (lymph node cells [2]; cells from β2GPI-tolerized mice): below the detection threshold
levels of IFN-γ secreted by lymph node cells (lymph node cells [2]; cells from β2GPI-tolerized mice, stimulation with β2GPI, mean value): 1802 ± 588 pg/mL
Levels of IL-4 in medium relative to control animals (lymph node cells [2]; oral administration, immunized with β2GPI, cells incubated 48 h with β2GPI, p<0.01): three times higher
IL-10 secretion relative to BSA-treated controls (lymph node cells [2]; oral administration, immunized with β2GPI, in-vitro priming with β2GPI, p<0.05): 2.6 times
suppression of primary cellular response (lymph node cell proliferation) to oxLDL (lymph node cells [3]; oral 5 doses of 500 μg per mouse, stimulation with 20 μg/ml oxLDL, LDL-RD mice): 74%
reduction in Stimulation Index of OxLDL-sensitized lymph node cells (lymph node cells [3]; oral, 3 doses of 100 μg, LDL-RD mice immunized with OxLDL): 87%
IgM, IgA, or IgG total antibody levels and isotype distribution [4]: did not alter
reduction of the stimulation index of lymph node cells ([5]; mucosal administration to LDL-RD mice, Examples 3 and 6): up to 70%
suppression of primary cellular response (lymph node cell proliferation) to β2GPI ([5]; oral 5 doses of 500 μg per mouse, stimulation with 2.0 μg/ml β2GPI, LDL-RD mice): > 60%
influence on primary cellular response to BSA ([5]; oral administration, mice immunized with BSA, results not shown): did not influence
content of plaque-expressed β2GPI, mean percent occupancy (atherosclerotic lesions; oral 500 μg/dose, LDL-RD mice, data not shown): 15±5%
effect on number of CD3 positive cells or macrophage (Mac-1 positive) content of the fatty streaks (atherosclerotic lesions; oral administration, LDL-RD mice): No effect
number of CD3 positive cells (atherosclerotic lesions; oral administration, all groups, data not shown): 0-5 cells/plaque
